Experimental data taken from patent publication US20110150771A1.

Key:
Test in all cases: cell-based or functional assay
[1] = target: DEN2 E protein of chimeric WN/DEN2 virus, V-10 seed (E-K122I/K mixed, E-S186F, E-N203D) (Dengue virus type 2, strain 16681 (in a West Nile NY99 backbone)) (UniProt P29990)
[2] = target: E protein of wild type West Nile virus NY99 (West Nile virus, strain NY99) (UniProt Q9Q6P4); settings: scale: greatest antibody dilution that decreased plaques by at least 50%
[3] = target: DEN2 E protein of chimeric WN/DEN2 virus, V-3 seed (E-N203D; NS2A-I49T and NS2A-F94L elsewhere in the virus) (Dengue virus type 2, strain 16681 (in a West Nile NY99 backbone)) (UniProt P29990)
[4] = target: DEN2 E protein of chimeric WN/DEN2 virus, C6-1/V-2 seed (E-N203D) (Dengue virus type 2, strain 16681 (in a West Nile NY99 backbone)) (UniProt P29990)
[5] = target: DEN2 E protein of chimeric WN/DEN2 virus, C6-1 seed (Dengue virus type 2, strain 16681 (in a West Nile NY99 backbone)) (UniProt P29990)

Row | Substance | PRNT50 Titer [1] | PRNT50 Titer [2] | PRNT50 Titer [3] | PRNT50 Titer [4] | PRNT50 Titer [5]
1 | WNV E protein-specific monoclonal antibody (MAb3.67G) | < 1280 | > 41000 | < 1280 | < 1280 | < 1280
2 | DENV-2 E protein-specific monoclonal antibody (MAb3H5) | > 2560 | < 80 | > 2560 | > 2560 | > 2560
